Results published in patent publication US7087405 (dated 2006).

T1: integrin alphavbeta3 (human, UniProt P06756)
T1 chain 1: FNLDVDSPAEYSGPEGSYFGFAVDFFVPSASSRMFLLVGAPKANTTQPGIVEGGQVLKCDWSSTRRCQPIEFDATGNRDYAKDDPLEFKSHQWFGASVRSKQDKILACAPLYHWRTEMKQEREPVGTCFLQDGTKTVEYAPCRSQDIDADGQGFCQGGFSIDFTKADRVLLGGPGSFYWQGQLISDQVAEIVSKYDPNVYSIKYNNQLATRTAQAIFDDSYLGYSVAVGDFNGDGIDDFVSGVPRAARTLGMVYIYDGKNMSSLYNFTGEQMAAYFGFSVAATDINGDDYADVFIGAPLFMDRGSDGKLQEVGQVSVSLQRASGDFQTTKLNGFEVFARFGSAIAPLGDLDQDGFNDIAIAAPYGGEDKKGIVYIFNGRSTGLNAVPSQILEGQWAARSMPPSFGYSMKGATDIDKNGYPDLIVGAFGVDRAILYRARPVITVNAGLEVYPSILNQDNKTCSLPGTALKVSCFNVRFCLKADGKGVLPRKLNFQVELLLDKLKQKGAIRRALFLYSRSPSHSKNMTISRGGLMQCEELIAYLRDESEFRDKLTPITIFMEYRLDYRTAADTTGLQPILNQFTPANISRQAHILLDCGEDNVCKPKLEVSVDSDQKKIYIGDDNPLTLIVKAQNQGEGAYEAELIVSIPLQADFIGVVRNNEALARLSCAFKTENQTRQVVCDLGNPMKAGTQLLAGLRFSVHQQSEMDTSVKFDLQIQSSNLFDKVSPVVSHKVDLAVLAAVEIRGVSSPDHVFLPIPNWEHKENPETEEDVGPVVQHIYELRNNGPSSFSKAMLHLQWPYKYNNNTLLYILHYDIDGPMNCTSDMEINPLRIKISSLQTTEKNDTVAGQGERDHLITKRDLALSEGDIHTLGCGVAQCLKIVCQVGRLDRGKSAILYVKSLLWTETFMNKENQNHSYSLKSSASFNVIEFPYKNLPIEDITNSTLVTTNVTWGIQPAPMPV
T1 chain 2: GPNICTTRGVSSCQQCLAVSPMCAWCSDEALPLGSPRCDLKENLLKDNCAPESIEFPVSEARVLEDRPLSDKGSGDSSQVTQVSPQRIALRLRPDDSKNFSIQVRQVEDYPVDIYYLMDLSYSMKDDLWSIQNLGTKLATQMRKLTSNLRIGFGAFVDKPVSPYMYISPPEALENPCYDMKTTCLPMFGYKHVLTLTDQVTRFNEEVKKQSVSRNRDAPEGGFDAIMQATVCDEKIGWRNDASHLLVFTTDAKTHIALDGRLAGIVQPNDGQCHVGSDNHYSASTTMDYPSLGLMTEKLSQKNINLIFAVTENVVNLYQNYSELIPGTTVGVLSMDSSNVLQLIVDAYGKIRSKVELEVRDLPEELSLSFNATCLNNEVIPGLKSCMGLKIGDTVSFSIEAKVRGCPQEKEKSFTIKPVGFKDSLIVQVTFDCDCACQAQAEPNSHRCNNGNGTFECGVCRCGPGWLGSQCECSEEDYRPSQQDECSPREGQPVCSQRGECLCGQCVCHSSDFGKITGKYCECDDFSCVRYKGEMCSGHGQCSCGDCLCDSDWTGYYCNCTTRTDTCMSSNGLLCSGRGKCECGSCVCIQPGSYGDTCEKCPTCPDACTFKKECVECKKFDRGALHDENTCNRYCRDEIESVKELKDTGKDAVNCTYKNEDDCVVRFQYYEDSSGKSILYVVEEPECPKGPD

T2: integrin alphavbeta5 (human, UniProt P06756)
T2 chain 1: T1 chain 1
T2 chain 2: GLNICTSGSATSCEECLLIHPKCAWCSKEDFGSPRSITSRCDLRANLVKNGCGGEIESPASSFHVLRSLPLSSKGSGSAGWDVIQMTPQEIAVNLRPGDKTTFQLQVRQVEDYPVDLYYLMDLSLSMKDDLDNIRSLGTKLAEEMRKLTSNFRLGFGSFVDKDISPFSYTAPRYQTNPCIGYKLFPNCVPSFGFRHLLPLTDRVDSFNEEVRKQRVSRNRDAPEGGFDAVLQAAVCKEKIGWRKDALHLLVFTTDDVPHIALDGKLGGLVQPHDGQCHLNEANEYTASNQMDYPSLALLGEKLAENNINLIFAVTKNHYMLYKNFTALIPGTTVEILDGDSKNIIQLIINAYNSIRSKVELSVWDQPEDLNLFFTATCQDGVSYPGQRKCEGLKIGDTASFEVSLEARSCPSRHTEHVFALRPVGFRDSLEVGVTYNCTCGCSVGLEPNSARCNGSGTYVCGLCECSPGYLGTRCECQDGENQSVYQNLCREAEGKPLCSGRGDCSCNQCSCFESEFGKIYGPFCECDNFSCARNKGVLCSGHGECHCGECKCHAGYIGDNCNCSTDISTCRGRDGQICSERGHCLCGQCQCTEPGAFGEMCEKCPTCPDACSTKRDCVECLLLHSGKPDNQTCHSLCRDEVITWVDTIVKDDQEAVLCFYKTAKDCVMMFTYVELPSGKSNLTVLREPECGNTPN

B1: B9HL1G1 (antibody)
chain 1: QVQLVQSGAEVKKPGASVKVSCKASGYTFSSYWIEWVKQAPGQGLEWIGEILPRSGNTNYNEKFKGKATFTADTSTSTAYMELSSLRSEDTAVYYCSSRGVRGSMDYWGQGTLVTVSS
chain 2: DIQMTQSPSSLSASVGDRVTITCRSSQDISNFLNWYQQKPGKAPKLLIYYTSTLHSGVPSRFSGSGSGTDYTLTISSLQPEDFATYYCQQGNTASLDVRWRY
B2: B9HL1G4 (antibody)
chain 1: B1 chain 1
chain 2: B1 chain 2
B3: B9HL2G1 (antibody, V domains shown)
VH: B1 chain 1
VL: DIQMTQSPSSLSASVGDRVTITCRSSQDISNFLNWYQQKPGKAPKLLIYYTSTLHSGVPSRFSGSGSGTDYTFTISSLQPEDIATYYCQQGNTLPWTFGGGT
B4: B9HH1G1/HL3K (antibody, V domains shown)
VH: B1 chain 1
VL: DIQMTQSPSSLSASVGDRVTITCRSSQDISNFLNWYQQKPGKAPKLLIYYTSTLHSGVPSRFSGSGSGTDYTLTISSLQPEDFATYYCQQGNTLPWTFGGGTNVE
B5: murine B9 (antibody, V domains shown)
VH: QVQLQQSGAELMKPGASVKISCKATGYTFSSYWIEWVKQRPGHGLEWIGEILPRSGNTNYNEKFKGKATFTAETSSNTAYMQLSSLTPEDSAVYYCSSRGVRGSMDYWGQGTSVTVSS
VL: DIQMTQTTSSLSASLGDRVTITCRSSQDISNFLNWYQQKPDGTVKLLIYYTSTLHSGVPSRFSGSGSGTDYSLTISNLEQEDIATYFCQQGNTLPWTFGGGTNLEIKR

Experiments:
integrin alphavbeta3 [1] = target: T1, integrin alphavbeta3; assay: SPR, mAb captured on Protein A
integrin alphavbeta5 = target: T2, integrin alphavbeta5; assay: SPR, receptor immobilized, bivalent
integrin alphavbeta3 [2] = target: T1, integrin alphavbeta3; assay: SPR, receptor immobilized, bivalent

Row | Kd (integrin alphavbeta3 [1]) | Kd (integrin alphavbeta5) | Kd (integrin alphavbeta3 [2]) | Binder
1 | 8.2 nM | – | – | B1
2 | 5.4 nM | – | – | B2
3 | 7.1 nM | – | – | B3
4 | 6.9 nM | – | – | B4
5 | – | 0.11 nM | 0.29 nM | B5
